In paper PMC9860306 (2022):

Key:
Assay in all cases: SPR
E2 = molecular target: E2
C11 = molecular target: C11
E4 = molecular target: E4

Kd (E2): 4.74 µM
Kd (C11): 22.8 µM
Kd (E4): 2.48 µM
B1: rituximab, galactosylated afucosylated (G2) glycoform (antibody)
chain 1: QVQLQQPGAELVKPGASVKMSCKASGYTFTSYNMHWVKQTPGRGLEWIGAIYPGNGDTSYNQKFKGKATLTADKSSSTAYMQLSSLTSEDSAVYYCARSTYYGGDWYFNVWGAGTTVTVSA
chain 2: QIVLSQSPAILSASPGEKVTMTCRASSSVSYIHWFQQKPGSSPKPWIYATSNLASGVPVRFSGSGSGTSYSLTISRVEAEDAATYYCQQWTSNPPTFGGGTKLEIK
modifications: N-linked glycan on Asn297: G2 (galactosylated, no core fucose)
